Experimental data from paper PMC9133112, “The structural basis of Cdc7-Dbf4 kinase dependent targeting and phosphorylation of the MCM2-7 double hexamer” (Nature Communications, 2022).

B1: Mcm7 (natural protein, Saccharomyces cerevisiae, UniProt P38132 1-845, looked up)
chain: MSAALPSIQLPVDYNNLFNEITDFLVTFKQDTLSSDATRNENEDENLDAENIEQHLLEKGPKYMAMLQKVANRELNSVIIDLDDILQYQNEKFLQGTQADDLVSAIQQNANHFTELFCRAIDNNMPLPTKEIDYKDDVLDVILNQRRLRNERMLSDRTNEIRSENLMDTTMDPPSSMNDALREVVEDETELFPPNLTRRYFLYFKPLSQNCARRYRKKAISSKPLSVRQIKGDFLGQLITVRGIITRVSDVKPAVEVIAYTCDQCGYEVFQEVNSRTFTPLSECTSEECSQNQTKGQLFMSTRASKFSAFQECKIQELSQQVPVGHIPRSLNIHVNGTLVRSLSPGDIVDVTGIFLPAPYTGFKALKAGLLTETYLEAQFVRQHKKKFASFSLTSDVEERVMELITSGDVYNRLAKSIAPEIYGNLDVKKALLLLLVGGVDKRVGDGMKIRGDINVCLMGDPGVAKSQLLKAICKISPRGVYTTGKGSSGVGLTAAVMKDPVTDEMILEGGALVLADNGICCIDEFDKMDESDRTAIHEVMEQQTISISKAGINTTLNARTSILAAANPLYGRYNPRLSPLDNINLPAALLSRFDILFLMLDIPSRDDDEKLAEHVTYVHMHNKQPDLDFTPVEPSKMREYIAYAKTKRPVMSEAVNDYVVQAYIRLRQDSKREMDSKFSFGQATPRTLLGIIRLSQALAKLRLADMVDIDDVEEALRLVRVSKESLYQETNKSKEDESPTTKIFTIIKKMLQETGKNTLSYENIVKTVRLRGFTMLQLSNCIQEYSYLNVWHLINEGNTLKFVDDGTMDTDQEDSLVSTPKLAPQTTASANVSAQDSDIDLQDA
notes: Mcm7, Saccharomyces cerevisiae, full length; Subunit of m2, written alone for the contacts seen in the cryo-EM structures
B2: Dbf4-dependent Cdc7 kinase (DDK), wild type (complex, Saccharomyces cerevisiae)
chain 1: MTSKTKNIDDIPPEIKEEMIQLYHDLPGIENEYKLIDKIGEGTFSSVYKAKDITGKITKKFASHFWNYGSNYVALKKIYVTSSPQRIYNELNLLYIMTGSSRVAPLCDAKRVRDQVIAVLPYYPHEEFRTFYRDLPIKGIKKYIWELLRALKFVHSKGIIHRDIKPTNFLFNLELGRGVLVDFGLAEAQMDYKSMISSQNDYDNYANTNHDGGYSMRNHEQFCPCIMRNQYSPNSHNQTPPMVTIQNGKVVHLNNVNGVDLTKGYPKNETRRIKRANRAGTRGFRAPEVLMKCGAQSTKIDIWSVGVILLSLLGRRFPMFQSLDDADSLLELCTIFGWKELRKCAALHGLGFEASGLIWDKPNGYSNGLKEFVYDLLNKECTIGTFPEYSVAFETFGFLQQELHDRMSIEPQLPDPKTNMDAVDAYELKKYQEEIWSDHYWCFQVLEQCFEMDPQKRSSAEDLLKTPFFNELNENTYLLDGESTDEDDVVSSSEADLLDKDVLLISE
chain 2: MVSPTKMIIRSPLKETDTNLKHNNGIAASTTAAGHLNVFSNDNNCNNNNTTESFPKKRSLERLELQQQQHLHEKKRARIERARSIEGAVQVSKGTGLKNVEPRVTPKELLEWQTNWKKIMKRDSRIYFDITDDVEMNTYNKSKMDKRRDLLKRGFLTLGAQITQFFDTTVTIVITRRSVENIYLLKDTDILSRAKKNYMKVWSYEKAARFLKNLDVDLDHLSKTKSASLAAPTLSNLLHNEKLYGPTDRDPRTKRDDIHYFKYPHVYLYDLWQTWAPIITLEWKPQELTNLDELPYPILKIGSFGRCPFIGDRNYDESSYKRVVKRYSRDKANKKYALQLRALFQYHADTLLNTSSVNDQTKNLIFIPHTCNDSTKSFKKWMQEKAKNFEKTELKKTDDSAVQDVRNEHADQTDEKNSILLNETETKEPPLKEEKENKQSIAEESNKYPQRKELAATPKLNHPVLATFARQETEEVPDDLCTLKTKSRQAFEIKASGAHQSNDVATSFGNGLGPTRASVMSKNMKSLSRLMVDRKLGVKQTNGNNKNYTATIATTAETSKENRHRLDFNALKKDEAPSKETGKDSAVHLETNRKPQNFPKVATKSVSADSKVHNDIKITTTESPTASKKSTSTNVTLHFNAQTAQTAQPVKKETVKNSGYCENCRVKYESLEQHIVSEKHLSFAENDLNFEAIDSLIENLRFQI
notes: Cdc7 serine/threonine kinase, Saccharomyces cerevisiae, full length; Dbf4 (dumbbell former 4), Saccharomyces cerevisiae, full length; An MBP tag was cleaved with PreScission Protease; Treated with lambda phosphatase during purification; autophosphorylates (thio-phosphorylates with ATPγS) in the assays; also called Cdc7-Dbf4; WT DDK; source: budding yeast cells, purified (amylose resin, lambda …)

Legend:
Test in all cases: cryo-EM structure; MD-(ATPγS): 250 nM DH released from beads by AluI + 750 nM DDK, 10 min 24 °C, buffer C with 3 mM ATPγS; GraFix glycerol gradient with glutaraldehyde; states I-III
Details in all cases: both partners purified
[1] = molecular target: T1, Mcm4 (Saccharomyces cerevisiae, UniProt P30665 1-933)
T1 construct: Mcm4, Saccharomyces cerevisiae, full length; Subunit of m2, written alone for the contacts seen in the cryo-EM structures
T1 sequence (looked up): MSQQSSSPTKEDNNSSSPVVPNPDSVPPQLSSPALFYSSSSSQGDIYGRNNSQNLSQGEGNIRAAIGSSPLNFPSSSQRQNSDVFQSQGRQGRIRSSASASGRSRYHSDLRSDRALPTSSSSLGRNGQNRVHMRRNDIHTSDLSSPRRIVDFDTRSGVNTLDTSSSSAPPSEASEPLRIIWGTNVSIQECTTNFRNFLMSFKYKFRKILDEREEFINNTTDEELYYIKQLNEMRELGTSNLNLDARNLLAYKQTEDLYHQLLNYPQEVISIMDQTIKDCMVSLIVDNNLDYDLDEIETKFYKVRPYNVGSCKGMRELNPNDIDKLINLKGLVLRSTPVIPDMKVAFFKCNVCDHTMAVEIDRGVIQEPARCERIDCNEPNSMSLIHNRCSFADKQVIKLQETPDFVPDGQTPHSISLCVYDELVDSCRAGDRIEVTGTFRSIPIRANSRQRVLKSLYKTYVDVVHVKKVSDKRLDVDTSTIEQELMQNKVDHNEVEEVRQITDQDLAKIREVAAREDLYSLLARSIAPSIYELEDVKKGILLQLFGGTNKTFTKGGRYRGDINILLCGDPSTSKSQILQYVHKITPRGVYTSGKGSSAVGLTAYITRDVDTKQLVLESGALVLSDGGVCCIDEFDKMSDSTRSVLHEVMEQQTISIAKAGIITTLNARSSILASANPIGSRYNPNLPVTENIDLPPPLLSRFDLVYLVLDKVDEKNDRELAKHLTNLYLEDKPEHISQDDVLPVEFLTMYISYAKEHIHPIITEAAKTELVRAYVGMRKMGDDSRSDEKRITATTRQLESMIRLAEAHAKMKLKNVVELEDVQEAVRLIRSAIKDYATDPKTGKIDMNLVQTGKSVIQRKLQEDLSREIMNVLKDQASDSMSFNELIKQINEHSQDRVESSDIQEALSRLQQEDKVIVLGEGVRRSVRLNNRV

[2] = molecular target: T2, Mcm3 (Saccharomyces cerevisiae, UniProt P24279 1-971)
T2 construct: Mcm3, Saccharomyces cerevisiae, full length; Subunit of m2, written alone for the contacts seen in the cryo-EM structures
T2 sequence (P24279 whole entry): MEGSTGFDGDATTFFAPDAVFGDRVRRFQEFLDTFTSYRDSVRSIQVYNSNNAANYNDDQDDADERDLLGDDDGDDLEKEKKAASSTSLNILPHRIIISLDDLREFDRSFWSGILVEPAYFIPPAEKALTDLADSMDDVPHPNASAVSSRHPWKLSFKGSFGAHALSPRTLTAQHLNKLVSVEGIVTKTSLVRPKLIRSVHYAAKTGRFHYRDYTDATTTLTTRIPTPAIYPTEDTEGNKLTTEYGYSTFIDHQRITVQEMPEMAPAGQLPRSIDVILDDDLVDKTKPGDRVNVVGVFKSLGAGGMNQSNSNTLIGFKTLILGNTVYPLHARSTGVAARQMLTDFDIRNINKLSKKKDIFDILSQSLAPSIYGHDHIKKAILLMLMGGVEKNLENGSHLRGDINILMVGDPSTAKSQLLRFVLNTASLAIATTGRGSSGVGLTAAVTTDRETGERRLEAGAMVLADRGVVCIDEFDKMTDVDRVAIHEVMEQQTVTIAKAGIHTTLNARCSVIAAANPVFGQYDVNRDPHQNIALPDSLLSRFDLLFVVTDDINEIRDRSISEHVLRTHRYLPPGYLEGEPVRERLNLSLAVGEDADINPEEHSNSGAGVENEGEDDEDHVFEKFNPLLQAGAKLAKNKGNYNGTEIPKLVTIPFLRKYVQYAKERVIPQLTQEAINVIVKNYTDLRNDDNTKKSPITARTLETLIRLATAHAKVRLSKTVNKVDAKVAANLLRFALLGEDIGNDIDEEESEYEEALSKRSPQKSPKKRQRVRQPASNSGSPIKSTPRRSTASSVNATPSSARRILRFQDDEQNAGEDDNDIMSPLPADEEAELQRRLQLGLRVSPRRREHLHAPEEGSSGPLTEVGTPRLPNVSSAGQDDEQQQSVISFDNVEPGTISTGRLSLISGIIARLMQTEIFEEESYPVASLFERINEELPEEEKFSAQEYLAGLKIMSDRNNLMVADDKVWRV

[3] = molecular target: T3, MCM2-7 double hexamer (Saccharomyces cerevisiae, UniProt P29469 1-868; P24279 1-971; P30665 1-933; P29496 1-775; P53091 1-1017; P38132 …)
T3 construct: Mcm2, Saccharomyces cerevisiae, full length; Mcm3, Saccharomyces cerevisiae, full length; Mcm4, Saccharomyces cerevisiae, full length; Mcm5, Saccharomyces cerevisiae, full length; Mcm6, Saccharomyces cerevisiae, full length; Mcm7, Saccharomyces cerevisiae, full length; Two head-to-head MCM2-7 hexamers assembled on origin DNA; becomes (thio-)phosphorylated by DDK on Mcm2, Mcm4, Mcm6 (and Mcm7) …
T3 sequence (P29469 whole entry, chain 1 of 4): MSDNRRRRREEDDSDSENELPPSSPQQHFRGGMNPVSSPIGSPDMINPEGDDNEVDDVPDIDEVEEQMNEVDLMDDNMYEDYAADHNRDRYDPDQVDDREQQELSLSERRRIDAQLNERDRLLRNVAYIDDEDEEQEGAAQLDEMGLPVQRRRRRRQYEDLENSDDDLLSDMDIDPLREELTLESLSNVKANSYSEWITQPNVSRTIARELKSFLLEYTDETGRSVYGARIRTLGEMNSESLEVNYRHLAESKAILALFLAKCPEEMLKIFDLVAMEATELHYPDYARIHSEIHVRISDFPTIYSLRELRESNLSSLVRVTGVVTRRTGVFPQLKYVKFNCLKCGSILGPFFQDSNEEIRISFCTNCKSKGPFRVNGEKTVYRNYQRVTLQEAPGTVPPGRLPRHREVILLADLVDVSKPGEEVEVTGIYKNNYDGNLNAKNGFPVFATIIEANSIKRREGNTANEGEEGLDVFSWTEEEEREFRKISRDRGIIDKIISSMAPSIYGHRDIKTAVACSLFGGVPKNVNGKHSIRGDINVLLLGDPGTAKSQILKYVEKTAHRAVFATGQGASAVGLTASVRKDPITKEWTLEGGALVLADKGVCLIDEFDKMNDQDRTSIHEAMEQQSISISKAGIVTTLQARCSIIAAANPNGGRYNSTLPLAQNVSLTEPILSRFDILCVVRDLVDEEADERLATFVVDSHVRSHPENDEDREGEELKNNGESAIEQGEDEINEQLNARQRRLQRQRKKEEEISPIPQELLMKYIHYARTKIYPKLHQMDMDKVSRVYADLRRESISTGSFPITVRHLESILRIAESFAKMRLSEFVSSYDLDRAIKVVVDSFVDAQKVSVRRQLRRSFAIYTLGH
T3 sequence (P24279 whole entry, chain 2 of 4): as the sequence (P24279 whole entry) above
T3 sequence (P29496 whole entry, chain 4 of 4): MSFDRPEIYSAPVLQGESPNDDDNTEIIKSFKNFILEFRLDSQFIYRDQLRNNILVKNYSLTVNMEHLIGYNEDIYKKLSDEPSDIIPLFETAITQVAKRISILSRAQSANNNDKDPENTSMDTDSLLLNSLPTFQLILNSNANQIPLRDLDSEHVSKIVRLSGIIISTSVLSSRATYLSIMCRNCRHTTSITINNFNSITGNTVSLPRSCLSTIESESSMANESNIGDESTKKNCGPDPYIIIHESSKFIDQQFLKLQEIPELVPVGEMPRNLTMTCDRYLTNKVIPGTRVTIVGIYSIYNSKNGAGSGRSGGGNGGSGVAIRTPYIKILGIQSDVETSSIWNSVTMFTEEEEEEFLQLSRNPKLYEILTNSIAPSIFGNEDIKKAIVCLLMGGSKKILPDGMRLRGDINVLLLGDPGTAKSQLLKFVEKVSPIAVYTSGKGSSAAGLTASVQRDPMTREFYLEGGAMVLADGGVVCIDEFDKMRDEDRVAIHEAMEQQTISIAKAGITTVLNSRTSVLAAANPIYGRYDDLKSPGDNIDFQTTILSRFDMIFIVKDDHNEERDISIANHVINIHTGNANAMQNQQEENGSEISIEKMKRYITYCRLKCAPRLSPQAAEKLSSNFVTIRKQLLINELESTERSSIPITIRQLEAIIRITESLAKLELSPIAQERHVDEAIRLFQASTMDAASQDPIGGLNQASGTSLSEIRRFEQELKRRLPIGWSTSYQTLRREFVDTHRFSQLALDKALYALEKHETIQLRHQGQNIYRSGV
T3 sequence (P53091 whole entry, chain 5 of 4): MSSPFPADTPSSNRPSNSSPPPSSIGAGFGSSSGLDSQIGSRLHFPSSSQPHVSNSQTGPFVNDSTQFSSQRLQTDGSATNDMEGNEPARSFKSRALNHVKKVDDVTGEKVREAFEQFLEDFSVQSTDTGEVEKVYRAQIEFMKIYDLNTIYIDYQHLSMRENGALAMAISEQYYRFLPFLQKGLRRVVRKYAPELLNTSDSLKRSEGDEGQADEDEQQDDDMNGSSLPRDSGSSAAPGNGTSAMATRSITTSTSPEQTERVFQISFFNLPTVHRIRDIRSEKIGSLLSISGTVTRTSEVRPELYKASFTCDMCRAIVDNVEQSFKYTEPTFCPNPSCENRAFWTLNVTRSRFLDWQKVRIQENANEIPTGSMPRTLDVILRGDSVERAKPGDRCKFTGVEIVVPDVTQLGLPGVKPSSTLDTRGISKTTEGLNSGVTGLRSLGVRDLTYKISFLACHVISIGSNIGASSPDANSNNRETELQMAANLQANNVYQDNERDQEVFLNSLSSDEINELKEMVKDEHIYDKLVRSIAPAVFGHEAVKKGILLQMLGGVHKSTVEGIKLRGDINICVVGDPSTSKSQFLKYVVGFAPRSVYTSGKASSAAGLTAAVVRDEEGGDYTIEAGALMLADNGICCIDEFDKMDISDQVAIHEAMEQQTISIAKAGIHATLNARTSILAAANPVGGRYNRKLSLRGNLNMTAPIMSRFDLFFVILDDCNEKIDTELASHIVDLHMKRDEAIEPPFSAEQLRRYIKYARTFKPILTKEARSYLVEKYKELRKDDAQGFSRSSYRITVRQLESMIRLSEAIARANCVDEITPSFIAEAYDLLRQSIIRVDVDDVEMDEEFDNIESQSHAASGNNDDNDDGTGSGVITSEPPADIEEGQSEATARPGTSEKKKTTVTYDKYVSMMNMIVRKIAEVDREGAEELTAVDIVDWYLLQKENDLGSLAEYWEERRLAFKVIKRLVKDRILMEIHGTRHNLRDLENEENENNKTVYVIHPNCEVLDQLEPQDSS

| Binder | binding result [1] | binding result [2] | stoichiometry N [3] |
| --- | --- | --- | --- |
| B1 | binds | binds |  |
| B2 |  |  | 2 DDK per MCM2-7 double hexamer |
